Earlier results as cited in PMC6255930.

Target: hemopexin (Homo sapiens) (UniProt P02790)
Sequence of UniProt P02790 (P02790 24-462): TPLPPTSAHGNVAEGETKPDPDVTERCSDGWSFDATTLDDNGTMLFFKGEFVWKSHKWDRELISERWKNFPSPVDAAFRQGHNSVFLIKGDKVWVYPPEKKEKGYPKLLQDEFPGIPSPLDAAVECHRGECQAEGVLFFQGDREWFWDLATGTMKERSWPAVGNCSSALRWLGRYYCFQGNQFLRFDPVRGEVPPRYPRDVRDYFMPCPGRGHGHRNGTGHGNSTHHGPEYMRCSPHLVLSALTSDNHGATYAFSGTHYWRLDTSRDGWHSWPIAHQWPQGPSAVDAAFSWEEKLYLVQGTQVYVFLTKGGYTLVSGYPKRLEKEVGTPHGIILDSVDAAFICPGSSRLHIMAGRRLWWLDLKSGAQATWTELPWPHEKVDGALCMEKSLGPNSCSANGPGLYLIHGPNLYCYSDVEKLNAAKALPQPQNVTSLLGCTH

LRP1 (from UniProt Q07954)
Kd: 4 nM
